Assays:
[1] = tested on: human urinary bladder cancer cell line (T-24); assay: Cytotoxicity assay, cell titer glow luminescence, 72 h; type: cell-based
Experimental: (§1) T-24 Cell line were cultured in McCoy's 5a Medium Modified supplemented with 10% FBS and the PA-1 Cell line was cultured in EMEM Media supplemented with 10% FBS. The assay was performed by plating 5,000 cells/well and incubated at 37° C. overnight. […] Each concentration was added in triplicate and media-only wells used as a control. After incubation for 72 h cell titer glow (Promega) reagent (50 μL) was added to each well and the plates shaken for 5 mins and the luminescence was recorded. Percent viability was determined by dividing luminescence of the treated well by the non-treated well and multiplying by 100. Data was analysed using non-linear regression with a logarithmic scale.
(§2) 5,000 cells/well were plated and incubated at 37° C. overnight. Conjugates/vehicle control dilutions were made in respective media and added to cells. Volume added: 50 uL to each well. Starting treatment concentration was 1 uM for Conjugate of formula 16 and 18, and control SEQ ID NO: 5 alone and 10% for vehicle control (1×PBS with 20% DMA) and then diluted 10-fold down for a total of 11 treatment dilutions. Each concentration was analysed in triplicates. Media-only wells was used as a control to calculate percent viability. Cell titer glow reagent (volume: 50 uL) was added to each well, the plate was shaken for 5 mins and the luminescence was recorded. Drug Treatment Time: 72 hours. Percent viability was calculated by dividing the luminescence signal obtained for each treated well by the untreated well (media-only control) and multiplying by 100.

[2] = tested on: ovarian cancer cell line (PA-1); assay: as above; type: cell-based
Experimental: as §1, §2

[3] = Glycan binding study, N-Glycan array containing 100 glycans
[4] = Glycan binding study, O-Glycan array containing 94 glycans; conditions: T-antigen and its extended core structures
[5] = tested on: AGS Stomach; assay: Cytotoxic effect by MTT assay, 48 h; conditions: for Percent cytotoxicity wrt control: AGS, 48 h
Experimental: (§3) Cells were treated with Test Items at various concentrations (0.0001 μM-10 μM) for 48 h. The cells corresponding to Positive Control group were treated with Doxorubicin at a concentration ranging from 0.1 μM-100 μM. The Untreated cells were used as Control. After 48 h of incubation, the effect of Test Items on cytotoxicity of cells was determined by MTT assay, the plates were taken out and 20 μl of 5 mg/m1 of MTT 3-(4,5-dimethythiazol-2-yl)-2,5-diphenyl tetrazolium bromide solution was added to all the wells. Cells were incubated for 3 h at 37° C. The supernatant was aspirated. 150 μl of DMSO was added to each well to dissolve formazan crystals. The absorbance of each well was then read at 540 nm using Synergy HT micro plate reader.
(§4) The % Cytotoxicity was calculated using the formula:
(§5) Where, X=Absorbance of cells treated with Test Item; R=Absorbance of Control cells (Untreated cells maintained in growth medium only).
(§6) Selectivity Index was calculated using the formula:
(§7) SI=IC50 in Normal cell/IC50 in cancer cell.
(§8) Activity scores of the Selective Index values were categorized as: • Not selective (SI value ≤1) • Moderately selective (1<SI value <5) • Selective (SI value ≥5)

[6] = tested on: HT29 Colon; assay: Cytotoxic effect by MTT assay, 48 h; conditions: for Percent cytotoxicity wrt control: 48 h
Experimental: as §3, §4, §5, §6, §7, §8

[7] = tested on: KB Cervix; assay: Cytotoxic effect by MTT assay, 48 h; conditions: for Percent cytotoxicity wrt control: KB, 48 h
Experimental: as §3, §4, §5, §6, §7, §8

[8] = tested on: MDA-MB-231 Breast; assay: Cytotoxic effect by MTT assay, 48 h; conditions: for Percent cytotoxicity wrt control: 48 h
Experimental: as §3, §4, §5, §6, §7, §8

[9] = tested on: MG-63 Bone; assay: Cytotoxic effect by MTT assay, 48 h; conditions: for Percent cytotoxicity wrt control: 48 h
Experimental: as §3, §4, §5, §6, §7, §8

[10] = tested on: PA-1 Ovary; assay: Cytotoxic effect by MTT assay, 48 h; conditions: for Percent cytotoxicity wrt control: 48 h
Experimental: as §3, §4, §5, §6, §7, §8

[11] = tested on: PANC-1 Pancreatic; assay: Cytotoxic effect by MTT assay, 48 h; conditions: for Percent cytotoxicity wrt control: 48 h
Experimental: as §3, §4, §5, §6, §7, §8

[12] = tested on: T24 Bladder; assay: Cytotoxic effect by MTT assay, 48 h; conditions: for Percent cytotoxicity wrt control: 48 h
Experimental: as §3, §4, §5, §6, §7, §8

[13] = tested on: U251 MG Brain; assay: Cytotoxic effect by MTT assay, 48 h; conditions: for Percent cytotoxicity wrt control: U251 MG, 48 h
Experimental: as §3, §4, §5, §6, §7, §8

[14] = tested on: A549 Lungs; assay: Cytotoxic effect by MTT assay, 48 h; conditions: for Percent cytotoxicity wrt control: 48 h
Experimental: as §3, §4, §5, §6, §7, §8

B1: SEQ ID NO: 2: recombinant variant of the S. rolfsii lectin amino acid sequence (reported as Rec-2 in WO2010/095143) (protein)
chain: TYKITVRVYQTNPDAFFHPVEKTVWKYANGGTWTITDDQHVLTMGGSGTSGTLRFHADNGESFTATFGVHNYKRWCDIVTNLAADETGMVINQQYYSQKNREEARERQLSNYQVKNAKGRNFQIVYTEAEGNDLHANLIIG
[1]; 72 h
  IC50 values, T-24 cell line: 10.4 µg/mL
[1]; below 10 μM
  cytotoxic effects below 10 μM concentration: does not exhibit major cytotoxic effects
[2]; 72 h
  IC50 values, PA-1 Cell line: 20.3 µg/mL
[2]; below 10 μM
  cytotoxic effects below 10 μM concentration: does not exhibit major cytotoxic effects
[3]
  binding to N-glycans (in words): specific binding
[4]
  binding profile to O-glycans (in words): strong and broad binding profile
[5]; 0.0001 μM
  Percent cytotoxicity wrt control: 7.8%
[5]; 0.001 μM
  Percent cytotoxicity wrt control: 8.5%
[5]; 0.01 μM
  Percent cytotoxicity wrt control: 15.9%
[5]; 0.1 μM
  Percent cytotoxicity wrt control: 37%
[5]; 1 μM
  Percent cytotoxicity wrt control: 49.9%
[5]; 10 μM
  Percent cytotoxicity wrt control: 57.2%
[5]; read-out: IC50 Values, AGS Stomach, after 48 h of treatment
  IC50: 1720 nM
[6]; HT29, 0.0001 μM
  Percent cytotoxicity wrt control: 14%
[6]; HT29, 0.001 μM
  Percent cytotoxicity wrt control: 16.6%
[6]; HT29, 0.01 μM
  Percent cytotoxicity wrt control: 22.5%
[6]; HT29, 0.1 μM
  Percent cytotoxicity wrt control: 24.7%
[6]; HT29, 1 μM
  Percent cytotoxicity wrt control: 35.4%
[6]; HT29, 10 μM
  Percent cytotoxicity wrt control: 54.1%
[6]; read-out: IC50 Values, HT29 Colon, after 48 h of treatment
  IC50: 9390 nM
[7]; 0.0001 μM
  Percent cytotoxicity wrt control: −1.5%
[7]; 0.001 μM
  Percent cytotoxicity wrt control: −2.6%
[7]; 0.01 μM
  Percent cytotoxicity wrt control: −3.9%
[7]; 0.1 μM
  Percent cytotoxicity wrt control: 20.4%
[7]; 1 μM
  Percent cytotoxicity wrt control: 51.2%
[7]; 10 μM
  Percent cytotoxicity wrt control: 54.9%
[7]; read-out: IC50 Values, KB Cervix, after 48 h of treatment
  IC50: 880 nM
[8]; MDA-MB-231, 0.0001 μM
  Percent cytotoxicity wrt control: 13.7%
[8]; MDA-MB-231, 0.001 μM
  Percent cytotoxicity wrt control: 15.1%
[8]; MDA-MB-231, 0.01 μM
  Percent cytotoxicity wrt control: 16.2%
[8]; MDA-MB-231, 0.1 μM
  Percent cytotoxicity wrt control: 28.1%
[8]; MDA-MB-231, 1 μM
  Percent cytotoxicity wrt control: 48.5%
[8]; MDA-MB-231, 10 μM
  Percent cytotoxicity wrt control: 66.4%
[8]; read-out: IC50 Values, MDA-MB-231 Breast, after 48 h of treatment
  IC50: 1350 nM
[9]; MG-63, 0.0001 μM
  Percent cytotoxicity wrt control: 27%
[9]; MG-63, 0.001 μM
  Percent cytotoxicity wrt control: 38.7%
[9]; MG-63, 0.01 μM
  Percent cytotoxicity wrt control: 50.4%
[9]; MG-63, 0.1 μM
  Percent cytotoxicity wrt control: 59.1%
[9]; MG-63, 1 μM
  Percent cytotoxicity wrt control: 72.3%
[9]; MG-63, 10 μM
  Percent cytotoxicity wrt control: 74%
[9]; read-out: IC50 Values, MG-63 Bone, after 48 h of treatment
  IC50: 12.7 nM
[10]; PA-1, 0.0001 μM
  Percent cytotoxicity wrt control: 0.9%
[10]; PA-1, 0.001 μM
  Percent cytotoxicity wrt control: −5.6%
[10]; PA-1, 0.01 μM
  Percent cytotoxicity wrt control: 7.4%
[10]; PA-1, 0.1 μM
  Percent cytotoxicity wrt control: 4.5%
[10]; PA-1, 1 μM
  Percent cytotoxicity wrt control: 51%
[10]; PA-1, 10 μM
  Percent cytotoxicity wrt control: 72.2%
[10]; read-out: IC50 Values, PA-1 Ovary, after 48 h of treatment
  IC50: 1540 nM
[11]; PANC-1, 0.0001 μM
  Percent cytotoxicity wrt control: 9.5%
[11]; PANC-1, 0.001 μM
  Percent cytotoxicity wrt control: 17%
[11]; PANC-1, 0.01 μM
  Percent cytotoxicity wrt control: 20.5%
[11]; PANC-1, 0.1 μM
  Percent cytotoxicity wrt control: 22.5%
[11]; PANC-1, 1 μM
  Percent cytotoxicity wrt control: 34.4%
[11]; PANC-1, 10 μM
  Percent cytotoxicity wrt control: 36.4%
[11]; read-out: IC50 Values, PANC-1 Pancreatic, after 48 h of treatment
  IC50: > 10000 nM
[12]; T24, 0.0001 μM
  Percent cytotoxicity wrt control: 9.7%
[12]; T24, 0.001 μM
  Percent cytotoxicity wrt control: 11.1%
[12]; T24, 0.01 μM
  Percent cytotoxicity wrt control: 9.1%
[12]; T24, 0.1 μM
  Percent cytotoxicity wrt control: 10.5%
[12]; T24, 1 μM
  Percent cytotoxicity wrt control: 43.1%
[12]; T24, 10 μM
  Percent cytotoxicity wrt control: 68.7%
[12]; read-out: IC50 Values, T24 Bladder, after 48 h of treatment
  IC50: 2130 nM
[13]; 0.0001 μM
  Percent cytotoxicity wrt control: −9.9%
[13]; 0.001 μM
  Percent cytotoxicity wrt control: −13.2%
[13]; 0.01 μM
  Percent cytotoxicity wrt control: −14.5%
[13]; 0.1 μM
  Percent cytotoxicity wrt control: −5.3%
[13]; 1 μM
  Percent cytotoxicity wrt control: 15.9%
[13]; 10 μM
  Percent cytotoxicity wrt control: 62.5%
[13]; read-out: IC50 Values, U251 MG Brain, after 48 h of treatment
  IC50: 5950 nM
[14]; A549, 0.0001 μM
  Percent cytotoxicity wrt control: −0.5%
[14]; A549, 0.001 μM
  Percent cytotoxicity wrt control: −15.5%
[14]; A549, 0.01 μM
  Percent cytotoxicity wrt control: −1.1%
[14]; A549, 0.1 μM
  Percent cytotoxicity wrt control: −6.9%
[14]; A549, 1 μM
  Percent cytotoxicity wrt control: 31.9%
[14]; A549, 10 μM
  Percent cytotoxicity wrt control: 48.2%
[14]; read-out: IC50 Values, A549 Lungs, after 48 h of treatment
  IC50: ≥ 10000 nM

Source: patent US20250302974A1, “LECTIN-DRUG CONJUGATES” (UNICHEM LABORATORIES LIMITED, priority 2021, published 2025)
